Data from the supplement of paper PMC9170038.

Test system: K4 kissing-loop RNA reporter
Test: apparent KD of K4 kissing-loop reporter; higher = weaker reporter binding
Conditions: Eterna round: R107
Description: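 RNA-MaP round R107: designed RNA switches with theophylline, tryptophan, arginine or FMN aptamers are transcribed on-chip within common flanks. They are titrated with a labelled K4 kissing-loop RNA reporter in RNA-MaP buffer (100 mM Tris pH 7.5, 80 mM KCl, 4 mM MgCl2), without ligand or with the indicated ligand. Median apparent KD per design.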

[1] = input ligand: theophylline 20 uM
[2] = input ligand: tryptophan 2.4 mM
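Note: bound reporter read as fluorescence of individual clusters on recovered sequencing chips by microscopy, with normalized cluster intensities fitted with a binding model.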

Sequence | apparent KD of K4 kissing-loop reporter (input ligand: FMN 200 uM) | apparent KD of K4 kissing-loop reporter (input ligand: arginine 13.2 mM) | apparent KD of K4 kissing-loop reporter (input ligand: none) | apparent KD of K4 kissing-loop reporter [1] | apparent KD of K4 kissing-loop reporter [2]
AGAUUCGACACGGCCGCCACUUCCGGUGGCUGGUGUCAUGGUGCGCGUGAGUGAUGUUUAUGUGGAAGGACCGGGUGUUGAGUCU [whbob_Ex_Tryp_B_w41] | 0.597 µM | 0.525 µM | 0.73 µM | 0.751 µM | 0.872 µM
AGCAAUAUCACGGCCGCCACUGAUUAUUGUUUUUAUAGUUAUAAAUCUUGCCAGUGAUGUUGGUUCAGGACCGGGUGAGUUAAUA [JR_SSTryptoB_Sub002] | 0.498 µM | 0.565 µM | 0.727 µM | 0.62 µM | 0.373 µM
AGCAGGAGUGAUGUUCCUGUGGCAUAAGUUCGAGGACCGGUACGGCCGCCACUCGUAACAUUAAUCCGUCCUUGAUCAGAUAAGA [theeternabot_sameState_KL_Trp_A_12] | 0.195 µM | 0.186 µM | 0.216 µM | 0.243 µM | 0.101 µM
AGCAGUCAACUCGAAACCAUCGAAGAUGGUCGAGGACCGGUACGGCCGCCACUCGGAGUGAUGUUCCGAAGACUGCAAAAUAAAA [#SwitchBubble 14] | 0.283 µM | 0.299 µM | 0.307 µM | 0.328 µM | 0.477 µM
AGCAGUCACUCGAAAAACCAUCGAAGAUGGCGAGGACCGGUACGGCCGCCACUCGGAGUGAUGUUCCGAAGACUGCAAAAUAAAA [#SwitchBubble 15] | 0.35 µM | 0.438 µM | 0.368 µM | 0.313 µM | 0.435 µM
AGCCGAAAGGCGAGUGCUGUCGCUCCGGAAGGAGCGCAGGAAACUGCAGGUAGGUCGCCGGAGUGAUGUUUUGGUGCAGCACUCA [Omei KL Arginine A Exc B v7] | 0.163 µM | 0.218 µM | 0.129 µM | 0.132 µM | 0.134 µM
AGGAGCGUGGGAUGAAAAUCGCACGCUCCUCGAGGACCGGUACGGCCGCCACUCGCUCGCGCCGAGUGAUGUUCGGCCGGCGAAC [#2 Same State - Tryptophan A Attempt #12 (HarryS)] | 0.265 µM | 0.244 µM | 0.312 µM | 0.217 µM | 0.556 µM
AGGAUCACGUCAGUGAUGUUGACAAGAGAUACCAGAGACGAAAGUCUCCCUUGGCAGCUCACUGUGAUCCGUGACAAAGGUCACA [Omei KL hio A SS C v1] | 0.146 µM | 0.0632 µM | 0.0983 µM | 0.154 µM | 0.076 µM
AGGAUCACGUCAGUGAUGUUGACGAGAGAUACCAGAGACGAAAGUCUCCCUUGGCAGCUCAUCGUGAUCCGUGACAAAGGUCACA [Omei KL hio A SS C v4] | 0.338 µM | 0.203 µM | 0.317 µM | 0.278 µM | 0.297 µM
AGGCACGAGCAAGGAUAUCGAGUAGAGUGAUGUUCUGCCUGGGUUGGCUCGGAAGAGCCUUCUCAGCGAGAAGGUGCUCGUGCCU [#2 Same State - FMN A Attempt #19 (HarryS)] | 0.235 µM | 0.604 µM | 0.747 µM | 0.923 µM | 0.888 µM
AGGGCUGAGAGCGAUACCAGCGGUAACUGUAUGGUCCAAUAGAGUGAUGUUUUAUAGAGCCGCCCUUGGCAGCGCAAUCUAUUAG [XTheo-B5] | 0.245 µM | 0.0655 µM | 0.424 µM | 0.184 µM | 0.129 µM
AGGUACAAAAGUACCGCUAGAUCCACGGAAGGAGCGCCGGAAACGGCAGGUAGGUCGCCGGGCAGUGAUGUUGCCGGAUCUAGCA [Omei KL Arginine A SS A v4] | 0.161 µM | 0.155 µM | 0.231 µM | 0.24 µM | 0.198 µM
AGGUCCGAGCCCGGAAGGGCUCGGACCUGUUAGGAUAUGACGUUAUUCAGAAGGGAUGGGUGGAGUGAUGUUCCACCCGCAAGGG [#2 Same State - FMN A Attempt #9 (HarryS)] | 0.07 µM | 0.0963 µM | 0.111 µM | 0.102 µM | 0.0865 µM
AGGUUUUGAUCAGGAUAUGCAUUGACGAUGAGAAUAUAGUGAUGUUAUAUACUACGAAUUAGUAAAGUAGAAGGGAUUGAGGUUU [SSFMNB.aB] | 0.747 µM | 0.565 µM | 0.82 µM | 0.898 µM | 0.518 µM
AGUACAACUGCGGCCGCCACUCAACGCAGAUCAAAGAUCUGCAUUCACUCAGUGAUGUUGAGUGAGAGGACCGGGCAGUUGUACA [Omei KL Tryp B SS B v3] | 0.855 µM | 0.718 µM | 0.742 µM | 0.645 µM | 0.166 µM
AGUACAGACACGGCCGCCACUCAGAAGAAGAUAGUAGUGAUGUUACUGAUGAUGAGAAUAAUAAAGAGGACCGGGUGUUGUGCAA [#09 K4 Tryptophan B Same State] | 0.107 µM | 0.1 µM | 0.125 µM | 0.113 µM | 0.0715 µM
